Experimental data taken from patent publication US20210122824A1 (ADAGENE, published 2021).

Tests used:
[1] = target: T1, human LAG3 expressed on HEK293F cells (human, UniProt P18627 23-525); test: flow cytometry on transfected HEK293F cells
T1 construct: whole, on cells
T1 sequence (looked up): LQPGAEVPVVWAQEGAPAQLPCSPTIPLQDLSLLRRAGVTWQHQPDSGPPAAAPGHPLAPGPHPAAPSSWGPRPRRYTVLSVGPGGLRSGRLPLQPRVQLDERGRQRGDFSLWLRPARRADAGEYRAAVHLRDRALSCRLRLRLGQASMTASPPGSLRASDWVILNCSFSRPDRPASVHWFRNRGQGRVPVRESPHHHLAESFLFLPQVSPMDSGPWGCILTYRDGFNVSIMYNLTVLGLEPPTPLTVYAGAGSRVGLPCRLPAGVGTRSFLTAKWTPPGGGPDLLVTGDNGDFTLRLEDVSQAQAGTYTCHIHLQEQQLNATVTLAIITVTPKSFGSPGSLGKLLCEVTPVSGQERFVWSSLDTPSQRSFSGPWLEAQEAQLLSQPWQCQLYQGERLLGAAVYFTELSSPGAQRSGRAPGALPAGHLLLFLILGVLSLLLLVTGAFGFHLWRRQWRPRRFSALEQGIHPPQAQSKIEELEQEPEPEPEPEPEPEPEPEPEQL

[2] = target: T2, human PD-L1-Fc fusion protein (Sino Biological Cat #10084-H02H) (human, UniProt Q9NZQ7 19-239); test: SPR (Biacore T200), human PD-L1-Fc immobilized, IgG in solution
T2 construct: bought; not shown: Fc part of the bought fusion

[3] = target: T3, human PD-L1 expressed on cell surface (human, UniProt Q9NZQ7 19-290); test: flow cytometry on cells expressing human PD-L1 (legend of FIG. 5)
T3 construct: whole, on cells; also called full-length human PD-L1; cell surface PD-L1

[4] = target: T2, human PD-L1-Fc fusion protein (Sino …); test: SPR (Biacore T200), PD-L1-Fc immobilized (about 500 RU), IgG in solution
[5] = target: T4, mouse PD-L1-Fc fusion protein (mouse, UniProt Q9EP73 19-238, limits assumed); test: as above
T4 construct: not shown: Fc part

[6] = target: T5, rhesus PD-L1-Fc fusion protein (Sino Biological cat #90251-C02H) (rhesus, UniProt F6PJN1 19-239); test: as above
T5 construct: not shown: Fc part

[7] = target: T6, rat PD-L1-Fc fusion protein (Sino Biological cat #80450-R08H) (rat); test: as above
T6 construct: text calls all four immobilized proteins PD-L1-Fc fusion proteins

T2 sequence (Q9NZQ7 19-239 limits assumed): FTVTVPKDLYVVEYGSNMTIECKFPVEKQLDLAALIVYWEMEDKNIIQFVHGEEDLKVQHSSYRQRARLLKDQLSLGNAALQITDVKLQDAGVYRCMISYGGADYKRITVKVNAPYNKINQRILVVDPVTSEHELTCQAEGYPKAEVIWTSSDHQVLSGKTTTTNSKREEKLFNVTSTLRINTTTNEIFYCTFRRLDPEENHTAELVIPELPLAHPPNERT
T4 sequence (Q9EP73 19-238 limits assumed): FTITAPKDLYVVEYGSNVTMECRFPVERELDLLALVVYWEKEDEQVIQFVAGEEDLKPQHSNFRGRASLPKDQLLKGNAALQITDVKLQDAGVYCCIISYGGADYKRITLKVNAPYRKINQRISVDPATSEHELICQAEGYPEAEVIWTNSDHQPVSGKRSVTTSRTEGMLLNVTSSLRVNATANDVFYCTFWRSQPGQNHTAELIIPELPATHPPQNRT
T3 sequence (Q9NZQ7 19-290): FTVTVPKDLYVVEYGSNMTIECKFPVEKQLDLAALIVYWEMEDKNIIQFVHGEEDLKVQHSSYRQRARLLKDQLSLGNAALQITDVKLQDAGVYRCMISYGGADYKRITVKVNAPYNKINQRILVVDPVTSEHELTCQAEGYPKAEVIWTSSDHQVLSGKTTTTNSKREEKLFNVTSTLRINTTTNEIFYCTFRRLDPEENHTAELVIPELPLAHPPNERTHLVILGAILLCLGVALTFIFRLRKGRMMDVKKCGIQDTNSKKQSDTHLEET

B1: TY21421 (antibody, V domains shown)
VH: EVQLVESGGGLVQPGGSLRLSCAASGYSISSGYYWGWIRQAPGKGLEWIGIIYPSGGGTNYAQKFQGRVTISRDNSKNTLYLQLNSLRAEDTAVYYCARGGGLGFDYWGQGTLVTVSS
VL: DIQLTQSPSSLSASVGDRVTITCRASQSIPSFLNWYQQKPGKAPKLLIYAASSLQSGVPSRFSGSGSGTDFTLTISSLQPEDFATYYCQHYISWPRQFTFGQGTKVEIKR
notes: IgG1 (wild type) made from Fab B15041, from HEK293F cells
- binding result [1]: no binding (tested: 100 nM)
- Kd [2]: < 10 pM
- EC50 [3]: ~1000 pM
- Kd [4]: 6.19 pM
- koff [4]: 2.97e-05 s⁻¹
- kon [4]: 4.8e+06 M⁻¹ s⁻¹
- Kd [5]: 1.86 pM
- koff [5]: 2.06e-05 s⁻¹
- kon [5]: 1.11e+07 M⁻¹ s⁻¹
- Kd [6]: 1.85 pM
- koff [6]: 7.27e-06 s⁻¹
- kon [6]: 3.93e+06 M⁻¹ s⁻¹
- Kd [7]: 20.9 pM
- koff [7]: 0.000106 s⁻¹
- kon [7]: 5.07e+06 M⁻¹ s⁻¹
